The target in experiment [1] is T1, human OX40 (human, UniProt P43489 29-277).
T1 construct: whole, on cells; also called hOX40; OX40 receptor
T1 sequence (looked up): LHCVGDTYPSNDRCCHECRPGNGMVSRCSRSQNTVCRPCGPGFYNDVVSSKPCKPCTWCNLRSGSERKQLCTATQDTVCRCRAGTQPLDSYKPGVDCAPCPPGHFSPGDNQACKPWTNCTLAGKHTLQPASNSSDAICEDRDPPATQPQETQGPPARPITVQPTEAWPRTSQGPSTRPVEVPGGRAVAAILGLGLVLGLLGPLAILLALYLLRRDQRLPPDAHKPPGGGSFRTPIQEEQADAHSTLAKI
The experiment is described as follows: cell ELISA on dried L-hOX40 versus parental L cells, anti-mouse IgG Fc HRP. How it is done: In the experiment of FIG. 10, hOX40 hybridoma supernatants were screened against L-hOX40 versus L parental cells by ELISA. […] Plates were then frozen at −20° C. for at least one day before use. For antibody binding assays, frozen cells were rehydrated with PBS and washed with wash buffer containing PBS plus 0.05% Tween 20, and blocked with 2% BSA in wash buffer. Conditioned cells were then used for binding to OX40 antibody supernatants.
On the technique in general: An ELISA detects its analyte on a solid surface through an enzyme-linked reagent.

In experiment [2] the target is T1, human OX40. Put plainly: FACS binding assay on L/OX40 cells, PE goat anti-human IgG. (In general: In flow cytometry, cells or beads pass a laser one at a time.)
Experiment [3] addresses T1, human OX40. The experiment is described as follows: flow cytometry on L/OX40 cells, FITC goat anti-human IgG. How it is done: In a typical experiment, various concentrations of Ch119-43-1 were incubated with 10⁵ L/OX40 cells in PBS containing 0.5% BSA and 0.05% NaN₃ (FACS Buffer) for 1 hour at 4° C. Cells were then washed with ice-cold FACS Buffer and subjected to incubation with FITC-labeled goat anti-human IgG antibody for 30 min at 4° C. After washing with FACS Buffer, stained cells were analyzed using a FACScan flow cytometer (BD Biosciences, San Jose, Calif.).

For experiment [4], the target named is T1, human OX40. Put plainly: FACS binding assay on L/hOX40 cells, PE goat anti-human IgG.

The results in this text go back to US20160068604A1 (University of Texas, published 2016).

As a reminder, the EC50 is the midpoint of the concentration-response curve. Low readings indicate an effect from little substance, high ones a need for much substance.

B1: mouse anti-human OX40 monoclonal antibody 119-122 (antibody, V domains shown)
VH: EVQLVESGGGLVQPGESLKLSCESNEYEFPSHDMSWVRKTPEKRLELVAAINSDGGSTYYPDTMERRFIISRDNTKKTLYLQMSSLRSEDTALYYCARHYDDYYAWFAYWGQGTLVTVSA
VL: DIVLTQSPASLAVSLGQRATISCRASKSVSTSGYSYMHWYQQKPGQPPKLLIYLASNLESGVPARFSGSGSGTDFTLNIHPVEEEDAATYYCQHSRELPLTFGAGTKLELK
notes: Mouse hybridoma antibody; also called Mouse122
In the case of B1, the binding result with human OX40 [1] was “binds”.

B2: Chimeric 119-122 IgG1/kappa monoclonal antibody (antibody, V domains shown)
VH: EVQLVESGGGLVQPGESLKLSCESNEYEFPSHDMSWVRKTPEKRLELVAAINSDGGSTYYPDTMERRFIISRDNTKKTLYLQMSSLRSEDTALYYCARHYDDYYAWFAYWGQGTLVTVSA
VL: DIVLTQSPASLAVSLGQRATISCRASKSVSTSGYSYMHWYQQKPGQPPKLLIYLASNLESGVPARFSGSGSGTDFTLNIHPVEEEDAATYYCQHSRELPLTFGAGTKLELK
notes: Mouse variable regions with human gamma-1 and kappa constant regions (IgG1/kappa); also called Ch119
As for B2, the binding result with human OX40 [2] is “binds”.

B3: Chimeric 119-43-1 IgG1/kappa antibody (antibody, V domains shown)
VH: EVKLEESGGGLVQPGGSMKLSCAASGFTFSDAWMDWVRQSPEKGLEWVAEIRSKANNHATYYAESVNGRFTISRDDSKSSVYLQMNSLRAEDTGIYYCTWGEVFYFDYWGQGTTLTVSS
VL: DIQMTQSPSSLSASLGGKVTITCKSSQDINKYIAWYQHKPGKGPRLLIHYTSTLQPGIPSRFSGSGSGRDYSFSISNLEPEDIATYYCLQYDNLLTFGAGTKLELKR
notes: also called Ch119-43-1
Molecule B3 returned an EC50 with human OX40 [3] of 0.96 µg/mL.

B4: mouse anti-human OX40 monoclonal antibody 106-222 (antibody, V domains shown)
VH: QIQLVQSGPELKKPGETVKISCKASGYTFTDYSMHWVKQAPGKGLKWMGWINTETGEPTYADDFKGRFAFSLETSASTAYLQINNLKNEDTATYFCANPYYDYVSYYAMDYWGHGTSVTVSS
VL: DIVMTQSHKFMSTSVRDRVSITCKASQDVSTAVAWYQQKPGQSPKLLIYSASYLYTGVPDRFTGSGSGTDFTFTISSVQAEDLAVYYCQQHYSTPRTFGGGTKLEIK
notes: Mouse hybridoma antibody; also called Mouse222
As for B4, the binding result in the experiment with human OX40 [1] is “binds”.

B5: Chimeric 106-222 IgG1/kappa monoclonal antibody (antibody, V domains shown)
VH: QIQLVQSGPELKKPGETVKISCKASGYTFTDYSMHWVKQAPGKGLKWMGWINTETGEPTYADDFKGRFAFSLETSASTAYLQINNLKNEDTATYFCANPYYDYVSYYAMDYWGHGTSVTVSS
VL: DIVMTQSHKFMSTSVRDRVSITCKASQDVSTAVAWYQQKPGQSPKLLIYSASYLYTGVPDRFTGSGSGTDFTFTISSVQAEDLAVYYCQQHYSTPRTFGGGTKLEIK
notes: Mouse variable regions with human gamma-1 and kappa constant regions (IgG1/kappa); also called Ch222
With B5, the binding result with human OX40 [4] is “binds”.

B6: Humanized 119-122 IgG1/kappa monoclonal antibody (antibody, V domains shown)
VH: EVQLVESGGGLVQPGGSLRLSCAASEYEFPSHDMSWVRQAPGKGLELVAAINSDGGSTYYPDTMERRFTISRDNAKNSLYLQMNSLRAEDTAVYYCARHYDDYYAWFAYWGQGTMVTVSS
VL: EIVLTQSPATLSLSPGERATLSCRASKSVSTSGYSYMHWYQQKPGQAPRLLIYLASNLESGVPARFSGSGSGTDFTLTISSLEPEDFAVYYCQHSRELPLTFGGGTKVEIK
notes: Human IgG1/kappa; also called Hu119
Regarding B6, in the experiment with human OX40 [2], the binding result is “binds”.

B7: Humanized 106-222 IgG1/kappa monoclonal antibody (antibody, V domains shown)
VH: QVQLVQSGSELKKPGASVKVSCKASGYTFTDYSMHWVRQAPGQGLKWMGWINTETGEPTYADDFKGRFVFSLDTSVSTAYLQISSLKAEDTAVYYCANPYYDYVSYYAMDYWGQGTTVTVSS
VL: DIQMTQSPSSLSASVGDRVTITCKASQDVSTAVAWYQQKPGKAPKLLIYSASYLYTGVPSRFSGSGSGTDFTFTISSLQPEDIATYYCQQHYSTPRTFGQGTKLEIK
notes: Human IgG1/kappa; also called Hu222
With B7, in the experiment with human OX40 [4], the binding result was “binds”.
